Data published in patent US20230192860A1 (published 2023).
Where a chain is given by its changes, count along the chain named.

B1: P1-068767_E100fF_D102V (antibody, V domains shown)
VH: EVQLVESGGGLVQPGKSLRLSCAASGFTLEDYAMHWVRQAPGKGLEWVSGIDWNSENIGYADSVKGRFTISRDNAKNSLYLQMNSLRTEDTALYYCAKVPGYSGGWIDAFDVWGQGTMVTVSS
VL: not shown
B2: P1-068767_E30D_D102V (antibody, V domains shown)
VH: B1 VH with E30D, F110E
VL: not shown
B3: P1-061029.IgG1.3 (antibody, V domains shown)
VH: B1 VH with E30D, D52N, E56A
VL: not shown
B4: P1-068767_D52N_D102V (antibody, V domains shown)
VH: B1 VH with D52N, F110E
VL: not shown
B5: P1-068767_E55A_D102V (antibody, V domains shown)
VH: B1 VH with E56A, F110E
VL: not shown
B6: P1-068767_D102V (antibody, V domains shown)
VH: B1 VH with F110E
VL: not shown
B7: P1-068761_E30D_E32Y (antibody, V domains shown)
VH: B1 VH with E30D, D52N, N57E, G104H, F110E
VL: not shown
B8: P1-068761_E32Y_E56N (antibody, V domains shown)
VH: B1 VH with D52N, G104H, F110E
VL: not shown
B9: P1-068761_E55A_E100fF (antibody, V domains shown)
VH: B1 VH with Y32E, D52N, E56A, N57E, G104H
VL: not shown

target: T1, monovalent hVISTA-ECD (amino acids 32-193 of SEQ ID NO: 1 with a 7xHis tail) (UniProt Q9H7M9 33-193); test: SPR; pH 6.7
T1 sequence (Q9H7M9 other isoform, or with tags, fused parts or gaps): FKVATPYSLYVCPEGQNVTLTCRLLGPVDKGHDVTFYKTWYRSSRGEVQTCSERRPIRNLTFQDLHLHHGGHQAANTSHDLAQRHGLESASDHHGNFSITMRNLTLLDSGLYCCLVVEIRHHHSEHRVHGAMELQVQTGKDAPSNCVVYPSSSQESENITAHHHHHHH

Kd	Binder
11 nM	B1
17 nM	B2
11 nM	B3
7.5 nM	B4
15 nM	B5
14 nM	B6

target: T1, monovalent hVISTA-ECD (amino acids …); test: SPR; pH 6.0

Kd	Binder
2.7 nM	B1
2.1 nM	B2
0.88 nM	B4
1.9 nM	B5
1.3 nM	B6

target: T1, monovalent hVISTA-ECD (amino acids …); test: SPR; pH 7.4

Kd	Binder
41 nM	B1
220 nM	B2
32 nM	B3
87 nM	B4
280 nM	B5
170 nM	B6

target: T1, monovalent hVISTA-ECD (amino acids …); test: SPR; pH 7.4; remark: another data set of the same source

Kd	Binder
21 nM	B7
32 nM	B3
42 nM	B8
14 nM	B9

target: T1, monovalent hVISTA-ECD (amino acids …); test: SPR; pH 6.0; remark: another data set of the same source

Kd	Binder
0.24 nM	B7
1.2 nM	B8
0.26 nM	B9

target: T1, monovalent hVISTA-ECD (amino acids …); test: SPR; pH 6.7; remark: another data set of the same source

Kd	Binder
2 nM	B7
11 nM	B3
5.1 nM	B8
1.5 nM	B9
